Measurements published in patent US20200190176A1 (VERITAS THERAPEUTICS, published 2020).

T1: recombinant human FGL2 (human, UniProt Q14314 30-439, limits assumed)
T1 construct: also called hFGL2; FGL2/fibroleukin
T1 sequence (looked up): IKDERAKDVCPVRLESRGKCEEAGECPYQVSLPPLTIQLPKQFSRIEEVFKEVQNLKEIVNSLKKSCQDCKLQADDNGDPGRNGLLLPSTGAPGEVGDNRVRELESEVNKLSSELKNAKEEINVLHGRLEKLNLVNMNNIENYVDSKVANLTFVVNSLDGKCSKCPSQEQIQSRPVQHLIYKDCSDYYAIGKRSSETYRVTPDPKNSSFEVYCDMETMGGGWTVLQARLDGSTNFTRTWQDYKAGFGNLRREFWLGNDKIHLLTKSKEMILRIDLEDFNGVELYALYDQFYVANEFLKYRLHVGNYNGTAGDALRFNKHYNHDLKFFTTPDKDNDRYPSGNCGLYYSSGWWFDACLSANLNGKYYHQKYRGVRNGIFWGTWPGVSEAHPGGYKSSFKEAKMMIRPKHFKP

T2: recombinant mouse FGL2 (mouse, UniProt P12804 27-432, limits assumed)
T2 construct: native mouse FGL2 is said to exist as an oligomer; also called murine recombinant FGL2
T2 sequence (looked up): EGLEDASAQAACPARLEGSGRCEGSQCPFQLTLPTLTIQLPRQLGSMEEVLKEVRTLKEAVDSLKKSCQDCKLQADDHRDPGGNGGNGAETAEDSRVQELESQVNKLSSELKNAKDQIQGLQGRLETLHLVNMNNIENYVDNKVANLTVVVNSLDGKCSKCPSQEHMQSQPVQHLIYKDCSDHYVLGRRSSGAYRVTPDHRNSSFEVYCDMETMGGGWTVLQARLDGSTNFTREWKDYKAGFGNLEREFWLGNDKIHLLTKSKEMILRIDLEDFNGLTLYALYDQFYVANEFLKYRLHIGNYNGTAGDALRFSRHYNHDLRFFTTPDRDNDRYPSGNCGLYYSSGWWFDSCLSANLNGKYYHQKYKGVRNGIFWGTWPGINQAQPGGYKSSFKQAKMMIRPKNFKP

B1: anti-FGL2 monoclonal antibody 3H9 (antibody, mouse IgG2b, kappa, V domains shown)
VH: EVQLQQSGPELVKSGASVKISCKTSGYTFTEYTIHWVKQSHGESLEWVGGINPKNGGISYNQKFKGKATLTVDKSSSTAYMELRSLTSEDSAVYFCARWGIGNYVGFPYWGQGTLVTVSA
VL: SIVMTQTPKFLLVSAGDRVTMTCKASLSVNNDVAWYQQKPGQSPKLLISYASSRYTGVPDRFTGSGYGTDFTFTISSVQAEDLAVYFCQQDYSSPLTFGAGTKLELKR
notes: Mouse hybridoma antibody generated in the same manner as 9D8; here built without leader
B2: anti-FGL2 monoclonal antibody 9D8 (antibody, mouse IgG1, kappa, V domains shown)
VH: EVQLQQSGAELVKPGASVQLSCTASGFNIKDTYIHWVKQRPEQGLEWIGRIDPEDGNTKYDPKFQAKATITADTFSNTAYLQLSSLTSEDTAVYYCARSYGNAYWGQGTLVTVSA
VL: DIVLTQSPASLAVSLGQRATISCRASQSVSTSRYTYMHWYQQKPGQPPKLLIKYASNLDSGVPARFSGSGSGTDFTLNIHPVQEEDTATYYCQHSWEIWAFGGGTKLEIKR
notes: Mouse hybridoma antibody purified from ascites; isotype-matched control was IgG1; here built without leader from variable region plus constant region; also called clone 9D8; antibody to FGL2 (9D8)

Key:
recombinant human FGL2 = target: T1, recombinant human FGL2; experiment: SPR, Biacore 3000, 25 C, antibody captured by goat anti-mouse Fc, FGL2 as analyte
Procedure: (§1) The response difference (Resp. Diff.) for each experiment was plotted against time (s). Resp. Diff. is the ligand-immobilized flow cell minus the control flow cell. A) Human FGL2. For the full kinetic analysis, SPR was performed using 0.625 nM, 2.5 nM, 5 nM, and 10 nM recombinant human FGL2. B) Mouse FGL2. For this analysis, SPR was performed using 10 nM recombinant mouse FGL2.
(§2) Binding experiments were performed on Biacore 3000 at 25° C. Flow cell 2 was coated with 1,000 RU of the goat anti-mouse Fc capture Ab by direct immobilization using EDC/NHS amine coupling method and the unoccupied sites were blocked with 1M ethanolamine. 9D8 or 3H9 was captured at an RU as indicated. Either recombinant human or mouse FGL2 was flowed over the chip and binding to 9D8 or 3H9 was monitored in real time. From the observed kon and koff, KD was determined.

recombinant mouse FGL2 = target: T2, recombinant mouse FGL2; experiment: as above
Procedure: as §1, §2

| Binder | Kd (recombinant human FGL2) [nM] | koff (recombinant human FGL2) [s⁻¹] | kon (recombinant human FGL2) [M⁻¹ s⁻¹] | Kd (recombinant mouse FGL2) [nM] | koff (recombinant mouse FGL2) [s⁻¹] | kon (recombinant mouse FGL2) [M⁻¹ s⁻¹] |
| --- | --- | --- | --- | --- | --- | --- |
| B1 | 0.286 | 0.000884 | 3.09e+06 | 0.103 | 0.000189 | 1.84e+06 |
| B2 | 0.857 | 0.0019 | 2.22e+06 | 1.8 | 0.00334 | 1.85e+06 |
